Reference: PMC10149471, “Assessing the applicability of ^19F labeled tryptophan residues to quantify protein dynamics” (Journal of Biomolecular Nmr, 2023)

T1: Dcp1 from S. pombe, residues 1-127, 15N and 5-fluorotryptophan labeled (S. pombe, UniProt Q9P805 1-127, 5-fluorotryptophan at Trp 45 and 107)
T1 construct: Dcp1, S. pombe, UniProt Q9P805, residues 1-127; the tryptophans are replaced with 5-fluorotryptophan; also called 5-fluorotryptophan labeled Dcp1; source: E. coli BL21(DE3) CodonPlus-RIL with 5-fluoroindole added, purified (Ni-NTA, TEV cleavage, second Ni-NTA, SEC)
T1 sequence (looked up): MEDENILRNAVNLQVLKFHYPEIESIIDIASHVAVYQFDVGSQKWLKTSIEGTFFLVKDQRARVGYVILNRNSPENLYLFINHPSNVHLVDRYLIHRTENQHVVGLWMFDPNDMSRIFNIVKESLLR

T2: Dcp2 from S. pombe, regulatory and catalytic domains, residues 1-243 (S. pombe, UniProt O13828 1-243)
T2 construct: Dcp2, S. pombe, residues 1-243 (NRD 1-95 and catalytic NUDIX domain 96-243); also called Dcp2-NRD-CTD; internal ID 223; source: E. coli BL21(DE3) CodonPlus-RIL, purified (Ni-NTA, TEV cleavage, second Ni-NTA, SEC)
T2 sequence (looked up): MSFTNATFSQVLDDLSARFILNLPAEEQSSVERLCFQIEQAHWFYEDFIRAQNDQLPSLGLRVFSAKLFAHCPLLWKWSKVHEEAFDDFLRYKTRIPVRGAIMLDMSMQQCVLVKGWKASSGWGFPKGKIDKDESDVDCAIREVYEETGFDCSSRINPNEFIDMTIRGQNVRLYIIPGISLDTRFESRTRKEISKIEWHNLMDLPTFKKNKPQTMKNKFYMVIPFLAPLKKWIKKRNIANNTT

T3: Dcp2 from S. pombe, regulatory and catalytic domains, residues 1-243, 5-fluorotryptophan labeled (S. pombe, UniProt O13828 1-243, the seven tryptophan residues are replaced with 5-fluorotryptophan)
T3 construct: Dcp2, S. pombe, residues 1-243 (NRD 1-95 and catalytic NUDIX domain 96-243); also used with isoleucine and methionine methyl 13C labeling; also called 5-fluorotryptophan labeled Dcp2-NRD-CTD; source: E. coli BL21(DE3) CodonPlus-RIL with 5-fluoroindole added, purified (Ni-NTA, TEV cleavage, second Ni-NTA, SEC)
T3 sequence (looked up): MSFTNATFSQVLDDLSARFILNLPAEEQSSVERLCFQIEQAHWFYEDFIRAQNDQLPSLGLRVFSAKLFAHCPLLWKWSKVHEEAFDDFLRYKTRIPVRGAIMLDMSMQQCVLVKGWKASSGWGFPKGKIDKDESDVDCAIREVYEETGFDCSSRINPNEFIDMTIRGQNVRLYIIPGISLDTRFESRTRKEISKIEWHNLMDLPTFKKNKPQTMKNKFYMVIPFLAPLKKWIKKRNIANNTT

B1: Dcp1 from S. pombe, residues 1-127 (natural protein, UniProt Q9P805 1-127, looked up)
chain: MEDENILRNAVNLQVLKFHYPEIESIIDIASHVAVYQFDVGSQKWLKTSIEGTFFLVKDQRARVGYVILNRNSPENLYLFINHPSNVHLVDRYLIHRTENQHVVGLWMFDPNDMSRIFNIVKESLLR
notes: Dcp1, S. pombe, UniProt Q9P805, residues 1-127; also called internal ID 48; source: E. coli BL21(DE3) CodonPlus-RIL, purified (Ni-NTA, TEV cleavage, second Ni-NTA, SEC)

How the values were obtained:
Assay in all cases: NMR spectra of a prepared complex; Dcp1 and Dcp2 expressed separately, complex prepared with one partner NMR active; 303 K; 125 mM NaCl, 25 mM HEPES, pH 7.3, 1 mM DTT; 100-500 uM protein
Conditions in all cases: both partners purified
[1] = biological target: B1
[2] = biological target: T1, Dcp1 from S. pombe, residues 1-127, 15N …
[3] = biological target: T2, Dcp2 from S. pombe, regulatory and …
[4] = biological target: T3, Dcp2 from S. pombe, regulatory and …

Row | Binder | binding result [1] | binding result [2] | binding result [3] | binding result [4]
1 | Dcp2 from S. pombe, N-terminal regulatory domain, residues 1-95 (domain or fragment, UniProt O13828 1-95, looked up, Dcp2, S. pombe, residues 1-95 (N-terminal regulatory domain); Used unlabeled or 15N labeled, depending on the sample; also called Dcp2 NRD; NRD of Dcp2; source: E. coli BL21(DE3) CodonPlus-RIL, purified (Ni-NTA, TEV cleavage, second Ni-NTA, SEC)) MSFTNATFSQVLDDLSARFILNLPAEEQSSVERLCFQIEQAHWFYEDFIRAQNDQLPSLGLRVFSAKLFAHCPLLWKWSKVHEEAFDDFLRYKTR | binds | binds | – | –
2 | Dcp2 from S. pombe, N-terminal regulatory domain, residues 1-95, 5-fluorotryptophan labeled (domain or fragment, UniProt O13828 1-95, looked up, 5-fluorotryptophan at the three tryptophan residues (W43 among them), Dcp2, S. pombe, residues 1-95 (N-terminal regulatory domain); also called 5-fluorotryptophan labeled Dcp2 NRD; source: E. coli BL21(DE3) CodonPlus-RIL with 5-fluoroindole added, purified (Ni-NTA, TEV cleavage, second Ni-NTA, SEC)) MSFTNATFSQVLDDLSARFILNLPAEEQSSVERLCFQIEQAHWFYEDFIRAQNDQLPSLGLRVFSAKLFAHCPLLWKWSKVHEEAFDDFLRYKTR | binds | – | – | –
3 | Dcp2 from S. pombe, residues 1-95, W43A assignment mutant (domain or fragment, UniProt O13828 1-95, looked up, Dcp2, S. pombe, residues 1-95 with W43A; also called Dcp2 NRD W43A; internal ID 1070; source: E. coli BL21(DE3) CodonPlus-RIL, purified (Ni-NTA, TEV cleavage, second Ni-NTA, SEC)) MSFTNATFSQVLDDLSARFILNLPAEEQSSVERLCFQIEQAHAFYEDFIRAQNDQLPSLGLRVFSAKLFAHCPLLWKWSKVHEEAFDDFLRYKTR | binds | – | – | –
4 | B1 | – | – | binds | binds
